According to the Immune Epitope Database (IEDB):

molecular target: HLA-B*57:01; assay: IEDB peptide-MHC binding, purified MHC/competitive/radioactivity; ≥ and ≤ were set here for values at or beyond the usual limits of such assays; details: source organism: Bordetella pertussis

Row | Sequence | IC50 [µM]
1 | ASVSNPGTF | 40.8
2 | KSLPGGKLP | 5.78

molecular target: HLA-B*44:03; assay: as above; details: source organism: Bordetella pertussis

Row | Sequence | IC50 [µM]
3 | AAQATVVQR | 23.3
4 | AEVTDTSPS | 41.2
5 | FEPGITTNY | 42.8
6 | GAASSYFEY | 44
7 | RELSAAANA | 21.1
8 | YEYIWGLYQ | 8.91

molecular target: HLA-B*53:01; assay: as above; details: source organism: Bordetella pertussis

Row | Sequence | IC50 [µM]
9 | ASPRRARRA | 69.9
10 | GAASSYFEY | 47.3
11 | LAANGNGQW | 1.67
12 | LATYQSEYL | ≥ 78.2
13 | MPIDRKTLC | 1.63
14 | PKPKPKAER | ≥ 78.2
15 | TAGATPFDI | 4.91

molecular target: HLA-A*02:01; assay: as above; details: source organism: Bordetella pertussis

Row | Sequence | IC50 [µM]
16 | YVLVKTNMV | 3.96

molecular target: HLA-B*07:02; assay: as above; details: source organism: Bordetella pertussis

Row | Sequence | IC50 [µM]
17 | EPASANTLL | 15
18 | LKRPGSSPM | 3.84

molecular target: HLA-B*35:01; assay: as above; details: source organism: Bordetella pertussis

Row | Sequence | IC50 [µM]
19 | EPASANTLL | 69.9
20 | GAASSYFEY | 2.67
21 | NALAWALML | 6.31
